# Assay results published in patent US20210115121A1.
# B1: AB1 having a rat VL of SEQ ID NO: 7 and a rat VH of SEQ ID NO.:8 (antibody, IgG1, V domains shown)
# VH: EVKLEESGPGLMQPSETLSLTCTVSGFSLTSNDIAWVRQPLGKGLVWMGTIWTDGSTNYNSAVQSRLSISRDTSKSQFFLKMNSLQPEDTGTYYCARHRLYYGAFDYWGQGTMVTVS
# VL: DIVMTQTPVSLSVTLGDQASISCRSSQSLEYSDGYTYLEWYLQKPGQSPQLLIYEVSNRFSGVPDRFIGSGSGTDFTLKISRVEPEDLGVYYCFQATHNPYTFGAGTKLEIK
# Biological target: human Tau P301S from brain of P301S Tau transgenic mice (human) (UniProt P10636)
# Sequence (P10636 other isoform, or with tags, fused parts or gaps P301S P301S P301S P301S): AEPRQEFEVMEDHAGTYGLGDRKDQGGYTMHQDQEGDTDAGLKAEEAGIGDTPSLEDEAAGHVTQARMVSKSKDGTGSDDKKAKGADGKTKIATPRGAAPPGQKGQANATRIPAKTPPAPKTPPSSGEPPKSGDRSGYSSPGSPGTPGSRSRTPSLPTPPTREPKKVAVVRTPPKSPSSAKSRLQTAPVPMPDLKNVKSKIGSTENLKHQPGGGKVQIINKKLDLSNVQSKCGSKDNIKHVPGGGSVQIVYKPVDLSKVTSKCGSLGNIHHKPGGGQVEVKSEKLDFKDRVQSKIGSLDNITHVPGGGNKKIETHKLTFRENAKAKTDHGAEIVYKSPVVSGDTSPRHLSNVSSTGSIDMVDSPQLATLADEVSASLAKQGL
# Test: cell-based or functional assay
binder,measurement,value
B1,IC50 (cellular Tau aggregation assay),2 nM
same,"Imax (maximal efficacy at 300 nM, cellular Tau aggregation assay)",93%
